In patent US20140031769A1, “THERAPEUTIC AGENT FORMULATIONS FOR IMPLANTED DEVICES” (ForSight Vision4, Inc., priority 2010, published 2014):
Values after ≈ are worked out from the molar mass of the structure shown. Where two headings read alike, the source gives them in different places. Blank lines part the entries; values can stand above or below the molecule they belong to.

Key:
[1] = Solubility of therapeutic agent suspension in buffer; format: physicochemical; details: aqueous buffer; in the buffer at 37C
Source text: The therapeutic agent stored in the reservoir of the container comprises at least one of a solid comprising the therapeutic agent, a solution comprising the therapeutic agent, a suspension comprising the therapeutic agent, particles comprising the therapeutic agent adsorbed thereon, or particles reversibly bound to the therapeutic agent. For example, reservoir may comprise a suspension of a cortico-steroid such as triamcinolone acetonide to treat inflammation of the retina.

[2] = human, cited from earlier work
[3] = monkey, cited from earlier work
[4] = RRI of 0.02 and reservoir volume of 25 uL; as described in U.S. Pub. No. 2010/0255061; cited from earlier work
[5] = rabbit, cited from earlier work
[6] = Critical micelle concentration (CMC) of surfactant, surface tension with Wilhelmy plate; format: physicochemical
Source text: The CMC can be determined from a variety of techniques such as measurements of surface tension using a Wilhelmy plate. The CMC for a particular surfactant may be dependent on a variety of parameters such as the concentrations of other components in the formulation and the temperature.
Surface tension measurements may be performed with a Wilhemy plate to determine the CMC; i.e., polysorbate 20 concentration threshold for constant surface tension. Devices can then be filled with formulations containing polysorbate 20 concentrations that are 0, 1, 5 and 20 times the CMC. These devices can be subjected to drug release testing and stability assays as described in Example 2.

solubility [1]: ~19 µg/mL (≈ 43.7 µM)
Molecule: CC1(C)O[C@@H]2C[C@H]3[C@@H]4CCC5=CC(=O)C=C[C@]5(C)[C@@]4(F)[C@@H](O)C[C@]3(C)[C@]2(C(=O)CO)O1 [triamcinolone acetonide]

Molecule: Ranibizumab: antibody derivative (Fab fragment), VEGF inhibitor; active ingredient of Lucentis™
half-life in the vitreous ([2]; listed as Lucentis™): about nine
half-life in the vitreous ([2]; listed as ranibizumab): ~220 h
half-life in the vitreous ([3]; listed as Lucentis™): two to four
half-life in the vitreous ([3]; listed as ranibizumab): approximately 3 days
half-life in device 100 [4]: about 100 days
half-life in the vitreous ([5]; listed as Lucentis™): two to four
half-life in the vitreous ([5]; listed as ranibizumab): approximately 3 days

CMC (wt %) ([6]; CMC 1e−5 M): 0.001% wt %
CMC (wt %) ([6]; CMC 8e−5 M): 0.01% wt %
Molecule: Polysorbate 20
